Laboratory results: PMC10940162

Target: porcine brain tubulin (microtubules) (porcine)
Test: microtubule-capping assay with TIRF microscopy; Taxol-, docetaxel- or GMPCPP-stabilized microtubules held on the coverslip through biotin–neutravidin; γ-TuC (GCP3–GFP) in solution; 5 µM tubulin, 50 mM KCl, MRB80, 30 °C; capped if γ-TuC stayed bound for at least 2 min

For “γ-tubulin-containing complexes (complete and incomplete γ-TuRC) purified using GCP3–GFP–SII (from UniProt Q96CW5 1-907; Q9BSJ2 1-902; Q9UGJ1 1-667; Q96RT8 1-1024; Q96RT7 1-1819; P23258 1-451)”, the capping efficiency (percent of minus ends capped by γ-TuC) was 30 to 60%.
